Measurements as given in US20130005646A1 (Novo Nordisk, published 2013).
Starred links: 1 amine or outer side, 2 acyl side, 3 side chain; linkers in the order of their positions; H or OH if unused. Positions of bridges follow the written chain, without caps; N, C: chain ends. Groups on a side chain read outwards from the residue. No end group written: not given here. *: point of attachment. C20 diacid = O=C(O)CCCCCCCCCCCCCCCCCCC(=O)*; C18 diacid = O=C(O)CCCCCCCCCCCCCCCCC(=O)*; γGlu = O=C(O)[C@H](CCC(=O)[*:2])N[*:1]

T1: human calcitonin (a) receptor (human, UniProt P30988 25-474)
T1 sequence (looked up): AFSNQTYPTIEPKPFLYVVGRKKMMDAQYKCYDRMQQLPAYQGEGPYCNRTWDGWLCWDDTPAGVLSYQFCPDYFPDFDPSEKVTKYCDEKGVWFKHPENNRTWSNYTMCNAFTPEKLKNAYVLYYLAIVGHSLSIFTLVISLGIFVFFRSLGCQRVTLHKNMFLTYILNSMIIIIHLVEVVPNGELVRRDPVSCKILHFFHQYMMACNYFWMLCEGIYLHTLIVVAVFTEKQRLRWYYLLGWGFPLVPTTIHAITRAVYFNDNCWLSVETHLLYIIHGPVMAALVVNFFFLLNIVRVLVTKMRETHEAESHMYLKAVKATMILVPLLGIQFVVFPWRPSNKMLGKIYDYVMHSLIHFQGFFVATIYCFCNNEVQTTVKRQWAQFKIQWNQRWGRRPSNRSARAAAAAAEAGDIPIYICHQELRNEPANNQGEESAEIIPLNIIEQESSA

T2: human amylin 3(a) receptor (human calcitonin receptor + RAMP-3) (human, UniProt P30988 25-474; O60896 24-148)
T2 sequence (looked up) 1: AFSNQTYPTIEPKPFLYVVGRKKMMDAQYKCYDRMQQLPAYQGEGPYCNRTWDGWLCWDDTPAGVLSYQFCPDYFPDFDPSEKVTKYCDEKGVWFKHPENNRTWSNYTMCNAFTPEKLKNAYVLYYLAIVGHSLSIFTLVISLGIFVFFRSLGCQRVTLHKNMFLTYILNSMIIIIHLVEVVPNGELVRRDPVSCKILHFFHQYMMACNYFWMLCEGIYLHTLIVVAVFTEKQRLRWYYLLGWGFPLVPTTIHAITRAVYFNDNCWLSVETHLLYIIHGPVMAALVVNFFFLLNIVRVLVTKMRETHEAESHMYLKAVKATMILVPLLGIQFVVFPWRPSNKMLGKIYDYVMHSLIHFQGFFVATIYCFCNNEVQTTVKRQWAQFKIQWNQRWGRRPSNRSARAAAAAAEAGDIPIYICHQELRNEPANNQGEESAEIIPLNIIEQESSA
T2 sequence (looked up) 2: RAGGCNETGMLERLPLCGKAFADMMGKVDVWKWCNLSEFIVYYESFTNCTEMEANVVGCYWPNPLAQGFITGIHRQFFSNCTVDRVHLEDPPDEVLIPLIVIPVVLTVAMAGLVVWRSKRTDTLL


How the values were obtained:
[1] = target: T1, human calcitonin (a) receptor; test: cell-based or functional assay
[2] = target: T2, human amylin 3(a) receptor (human …); test: cell-based or functional assay

Row | Binder | CTa receptor human EC50 [1] [nM] | Amylin receptor human EC50 [2] [nM]
1 | {C20 diacid-γGlu}-RCNTATCATQRLAEFLHHSSNNFGPILPPTNVGSHTY-NH2 (disulfide 2-7; SMILES CC[C@H](C)[C@H](NC(=O)[C@@H]1CCCN1C(=O)CNC(=O)[C@H](Cc1ccccc1)NC(=O)[C@H](CC(N)=O)NC(=O)[C@H](CC(N)=O)NC(=O)[C@H](CO)NC(=O)[C@H](CO)NC(=O)[C@H](Cc1c[nH]cn1)NC(=O)[C@H](Cc1c[nH]cn1)NC(=O)[C@H](CC(C)C)NC(=O)[C@H](Cc1ccccc1)NC(=O)[C@H](CCC(=O)O)NC(=O)[C@H](C)NC(=O)[C@H](CC(C)C)NC(=O)[C@H](CCCNC(=N)N)NC(=O)[C@H](CCC(N)=O)NC(=O)[C@@H](NC(=O)[C@H](C)NC(=O)[C@@H]1CSSC[C@H](NC(=O)[C@H](CCCNC(=N)N)NC(=O)CC[C@H](NC(=O)CCCCCCCCCCCCCCCCCCC(=O)O)C(=O)O)C(=O)N[C@@H](CC(N)=O)C(=O)N[C@@H]([C@@H](C)O)C(=O)N[C@@H](C)C(=O)N[C@@H]([C@@H](C)O)C(=O)N1)[C@@H](C)O)C(=O)N[C@@H](CC(C)C)C(=O)N1CCC[C@H]1C(=O)N1CCC[C@H]1C(=O)N[C@H](C(=O)N[C@@H](CC(N)=O)C(=O)N[C@H](C(=O)NCC(=O)N[C@@H](CO)C(=O)N[C@@H](Cc1c[nH]cn1)C(=O)N[C@H](C(=O)N[C@@H](Cc1ccc(O)cc1)C(N)=O)[C@@H](C)O)C(C)C)[C@@H](C)O) [N-alpha-[(S)-4-Carboxy-4-(19-carboxynonadecanoylamino)butyryl]-[Arg1,Glu14,His17,His35]-pramlintide] | 0.175 | 0.082
2 | {C20 diacid-γGlu}-GRCNTATCATQRLAEFLHHSSNNFGPILPPTNVGSHTY-NH2 (disulfide 3-8; SMILES CC[C@H](C)[C@H](NC(=O)[C@@H]1CCCN1C(=O)CNC(=O)[C@H](Cc1ccccc1)NC(=O)[C@H](CC(N)=O)NC(=O)[C@H](CC(N)=O)NC(=O)[C@H](CO)NC(=O)[C@H](CO)NC(=O)[C@H](Cc1c[nH]cn1)NC(=O)[C@H](Cc1c[nH]cn1)NC(=O)[C@H](CC(C)C)NC(=O)[C@H](Cc1ccccc1)NC(=O)[C@H](CCC(=O)O)NC(=O)[C@H](C)NC(=O)[C@H](CC(C)C)NC(=O)[C@H](CCCNC(=N)N)NC(=O)[C@H](CCC(N)=O)NC(=O)[C@@H](NC(=O)[C@H](C)NC(=O)[C@@H]1CSSC[C@H](NC(=O)[C@H](CCCNC(=N)N)NC(=O)CNC(=O)CC[C@H](NC(=O)CCCCCCCCCCCCCCCCCCC(=O)O)C(=O)O)C(=O)N[C@@H](CC(N)=O)C(=O)N[C@@H]([C@@H](C)O)C(=O)N[C@@H](C)C(=O)N[C@@H]([C@@H](C)O)C(=O)N1)[C@@H](C)O)C(=O)N[C@@H](CC(C)C)C(=O)N1CCC[C@H]1C(=O)N1CCC[C@H]1C(=O)N[C@H](C(=O)N[C@@H](CC(N)=O)C(=O)N[C@H](C(=O)NCC(=O)N[C@@H](CO)C(=O)N[C@@H](Cc1c[nH]cn1)C(=O)N[C@H](C(=O)N[C@@H](Cc1ccc(O)cc1)C(N)=O)[C@@H](C)O)C(C)C)[C@@H](C)O) | 0.0895 | 0.0675
3 | {C20 diacid-γGlu}-GRCNTATCATQRLANFLVHSSNNFGPILPPTNVGSHTY-NH2 (disulfide 3-8; SMILES CC[C@H](C)[C@H](NC(=O)[C@@H]1CCCN1C(=O)CNC(=O)[C@H](Cc1ccccc1)NC(=O)[C@H](CC(N)=O)NC(=O)[C@H](CC(N)=O)NC(=O)[C@H](CO)NC(=O)[C@H](CO)NC(=O)[C@H](Cc1c[nH]cn1)NC(=O)[C@@H](NC(=O)[C@H](CC(C)C)NC(=O)[C@H](Cc1ccccc1)NC(=O)[C@H](CC(N)=O)NC(=O)[C@H](C)NC(=O)[C@H](CC(C)C)NC(=O)[C@H](CCCNC(=N)N)NC(=O)[C@H](CCC(N)=O)NC(=O)[C@@H](NC(=O)[C@H](C)NC(=O)[C@@H]1CSSC[C@H](NC(=O)[C@H](CCCNC(=N)N)NC(=O)CNC(=O)CC[C@H](NC(=O)CCCCCCCCCCCCCCCCCCC(=O)O)C(=O)O)C(=O)N[C@@H](CC(N)=O)C(=O)N[C@@H]([C@@H](C)O)C(=O)N[C@@H](C)C(=O)N[C@@H]([C@@H](C)O)C(=O)N1)[C@@H](C)O)C(C)C)C(=O)N[C@@H](CC(C)C)C(=O)N1CCC[C@H]1C(=O)N1CCC[C@H]1C(=O)N[C@H](C(=O)N[C@@H](CC(N)=O)C(=O)N[C@H](C(=O)NCC(=O)N[C@@H](CO)C(=O)N[C@@H](Cc1c[nH]cn1)C(=O)N[C@H](C(=O)N[C@@H](Cc1ccc(O)cc1)C(N)=O)[C@@H](C)O)C(C)C)[C@@H](C)O) [N-alpha-[(S)-4-Carboxy-4-(19-carboxynonadecanoylamino)butyryl]-Gly-[Arg1,His35]-pramlintide] | 0.0875 | 0.045
4 | K([γGlu-C18 diacid])CNTATCATQRLAEFLHHSSNNFGPILPPTNVGSHTY-NH2 (disulfide 2-7; N-terminus assumed; SMILES CC[C@H](C)[C@H](NC(=O)[C@@H]1CCCN1C(=O)CNC(=O)[C@H](Cc1ccccc1)NC(=O)[C@H](CC(N)=O)NC(=O)[C@H](CC(N)=O)NC(=O)[C@H](CO)NC(=O)[C@H](CO)NC(=O)[C@H](Cc1c[nH]cn1)NC(=O)[C@H](Cc1c[nH]cn1)NC(=O)[C@H](CC(C)C)NC(=O)[C@H](Cc1ccccc1)NC(=O)[C@H](CCC(=O)O)NC(=O)[C@H](C)NC(=O)[C@H](CC(C)C)NC(=O)[C@H](CCCNC(=N)N)NC(=O)[C@H](CCC(N)=O)NC(=O)[C@@H](NC(=O)[C@H](C)NC(=O)[C@@H]1CSSC[C@H](NC(=O)[C@@H](N)CCCCNC(=O)CC[C@H](NC(=O)CCCCCCCCCCCCCCCCC(=O)O)C(=O)O)C(=O)N[C@@H](CC(N)=O)C(=O)N[C@@H]([C@@H](C)O)C(=O)N[C@@H](C)C(=O)N[C@@H]([C@@H](C)O)C(=O)N1)[C@@H](C)O)C(=O)N[C@@H](CC(C)C)C(=O)N1CCC[C@H]1C(=O)N1CCC[C@H]1C(=O)N[C@H](C(=O)N[C@@H](CC(N)=O)C(=O)N[C@H](C(=O)NCC(=O)N[C@@H](CO)C(=O)N[C@@H](Cc1c[nH]cn1)C(=O)N[C@H](C(=O)N[C@@H](Cc1ccc(O)cc1)C(N)=O)[C@@H](C)O)C(C)C)[C@@H](C)O) [N-epsilon1-[(S)-4-Carboxy-4-(17-carboxyheptadecanoylamino)butyryl]-[Glu14,His17,His35]-pramlintide] | 0.286 | 0.12

The remaining lines, values ahead:

Row | CTa receptor human EC50 [1] [nM] | Amylin receptor human EC50 [2] [nM] | Binder
5 | 0.193 | 0.0745 | {C20 diacid-γGlu}-RCNTATCATQRLANFLVHSSNNFGPILPPTNVGSHTY-NH2 (disulfide 2-7; SMILES CC[C@H](C)[C@H](NC(=O)[C@@H]1CCCN1C(=O)CNC(=O)[C@H](Cc1ccccc1)NC(=O)[C@H](CC(N)=O)NC(=O)[C@H](CC(N)=O)NC(=O)[C@H](CO)NC(=O)[C@H](CO)NC(=O)[C@H](Cc1c[nH]cn1)NC(=O)[C@@H](NC(=O)[C@H](CC(C)C)NC(=O)[C@H](Cc1ccccc1)NC(=O)[C@H](CC(N)=O)NC(=O)[C@H](C)NC(=O)[C@H](CC(C)C)NC(=O)[C@H](CCCNC(=N)N)NC(=O)[C@H](CCC(N)=O)NC(=O)[C@@H](NC(=O)[C@H](C)NC(=O)[C@@H]1CSSC[C@H](NC(=O)[C@H](CCCNC(=N)N)NC(=O)CC[C@H](NC(=O)CCCCCCCCCCCCCCCCCCC(=O)O)C(=O)O)C(=O)N[C@@H](CC(N)=O)C(=O)N[C@@H]([C@@H](C)O)C(=O)N[C@@H](C)C(=O)N[C@@H]([C@@H](C)O)C(=O)N1)[C@@H](C)O)C(C)C)C(=O)N[C@@H](CC(C)C)C(=O)N1CCC[C@H]1C(=O)N1CCC[C@H]1C(=O)N[C@H](C(=O)N[C@@H](CC(N)=O)C(=O)N[C@H](C(=O)NCC(=O)N[C@@H](CO)C(=O)N[C@@H](Cc1c[nH]cn1)C(=O)N[C@H](C(=O)N[C@@H](Cc1ccc(O)cc1)C(N)=O)[C@@H](C)O)C(C)C)[C@@H](C)O) [N-alpha-[(S)-4-Carboxy-4-(19-carboxynonadecanoylamino)butyryl]-[Arg1,His35]-pramlintide]
6 | 0.0385 | 0.034 | {C20 diacid-γGlu}-RCNTATCATQRLANFLVHSSNNFGPILPPTNVGSNTP-NH2 (disulfide 2-7; SMILES CC[C@H](C)[C@H](NC(=O)[C@@H]1CCCN1C(=O)CNC(=O)[C@H](Cc1ccccc1)NC(=O)[C@H](CC(N)=O)NC(=O)[C@H](CC(N)=O)NC(=O)[C@H](CO)NC(=O)[C@H](CO)NC(=O)[C@H](Cc1c[nH]cn1)NC(=O)[C@@H](NC(=O)[C@H](CC(C)C)NC(=O)[C@H](Cc1ccccc1)NC(=O)[C@H](CC(N)=O)NC(=O)[C@H](C)NC(=O)[C@H](CC(C)C)NC(=O)[C@H](CCCNC(=N)N)NC(=O)[C@H](CCC(N)=O)NC(=O)[C@@H](NC(=O)[C@H](C)NC(=O)[C@@H]1CSSC[C@H](NC(=O)[C@H](CCCNC(=N)N)NC(=O)CC[C@H](NC(=O)CCCCCCCCCCCCCCCCCCC(=O)O)C(=O)O)C(=O)N[C@@H](CC(N)=O)C(=O)N[C@@H]([C@@H](C)O)C(=O)N[C@@H](C)C(=O)N[C@@H]([C@@H](C)O)C(=O)N1)[C@@H](C)O)C(C)C)C(=O)N[C@@H](CC(C)C)C(=O)N1CCC[C@H]1C(=O)N1CCC[C@H]1C(=O)N[C@H](C(=O)N[C@@H](CC(N)=O)C(=O)N[C@H](C(=O)NCC(=O)N[C@@H](CO)C(=O)N[C@@H](CC(N)=O)C(=O)N[C@H](C(=O)N1CCC[C@H]1C(N)=O)[C@@H](C)O)C(C)C)[C@@H](C)O) [N-alpha-[(S)-4-Carboxy-4-(19-carboxynonadecanoylamino)butyryl]-[Arg1,Pro37]-pramlintide]
